Measurements: paper PMC12494293, “Hexokinase 2 is an RNA-binding protein that regulates mRNA translation independently of glycolysis and induces melanoma cell proliferation”

Molecular target: T1, HK2 Δ16 (UniProt P52789 17-917, del1-16)
T1 sequence: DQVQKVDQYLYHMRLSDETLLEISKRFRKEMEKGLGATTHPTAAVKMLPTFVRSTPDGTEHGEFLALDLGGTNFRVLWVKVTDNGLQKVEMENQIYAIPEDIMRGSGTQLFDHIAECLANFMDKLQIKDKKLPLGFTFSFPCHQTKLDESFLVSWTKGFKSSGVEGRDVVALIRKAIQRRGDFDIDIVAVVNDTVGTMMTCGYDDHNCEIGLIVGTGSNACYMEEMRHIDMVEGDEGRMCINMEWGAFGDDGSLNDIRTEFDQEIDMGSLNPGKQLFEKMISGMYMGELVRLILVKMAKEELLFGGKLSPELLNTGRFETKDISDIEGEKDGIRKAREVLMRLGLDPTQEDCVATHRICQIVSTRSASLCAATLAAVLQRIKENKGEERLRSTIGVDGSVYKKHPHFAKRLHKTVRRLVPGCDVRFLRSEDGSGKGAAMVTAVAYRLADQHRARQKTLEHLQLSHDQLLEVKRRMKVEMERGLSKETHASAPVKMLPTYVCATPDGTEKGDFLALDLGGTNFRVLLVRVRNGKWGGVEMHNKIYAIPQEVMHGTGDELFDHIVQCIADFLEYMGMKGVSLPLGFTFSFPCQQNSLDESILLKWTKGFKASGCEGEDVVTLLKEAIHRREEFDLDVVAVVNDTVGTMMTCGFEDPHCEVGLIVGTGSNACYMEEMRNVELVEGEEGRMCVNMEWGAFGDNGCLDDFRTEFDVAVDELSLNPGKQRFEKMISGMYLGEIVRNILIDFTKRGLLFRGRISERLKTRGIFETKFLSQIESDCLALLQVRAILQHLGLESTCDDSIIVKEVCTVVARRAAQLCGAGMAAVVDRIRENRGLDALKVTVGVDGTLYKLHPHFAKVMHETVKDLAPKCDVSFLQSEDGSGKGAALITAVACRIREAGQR
Test: competition; 5 µM HK2 Δ16, 25 nM ATTO700 SOX10 SL; almost complete competition; 10 mM Tris-HCl pH 7.5, 1 mM EDTA, 100 mM KCl, 0.1 mM DTT, 5% glycerol, 0.01 mg/mL BSA, 0.125 mg/mL yeast tRNA, 20°C; gel at 4°C
Conditions: protein: recombinant; (pET28b, Ni-NTA); hairpin

AGGACGAGCCCCAGACUGGAGGAGAGGUCC (structured_RNA) [SOX10 SL (unlabeled)]
binding result: binds
